Substrate in the data set: Nc1ncnc2c1ncn2[C@@H]1O[C@H](COP(=O)(O)OP(=O)(O)OP(=O)(O)O)[C@@H](O)[C@H]1O
Briefly: colorimetric bismuth citrate phosphate-release ATPase assay. In kind it is biochemical, Homo sapiens. Conditions: E. coli polar lipids, 1.5% sodium cholate, 4.1 mM CHS, Mg2+, 0.1% DDM, pH 7.5, 37 °C. From the text: colorimetric bismuth citrate phosphate-release ATPase assay on ABCG5/G8

Positions count from the first letter of the chain named. Names and notes keep the numbering of the source.

Usually Km stands for the concentration of substrate that gives half-maximal velocity. In general, Vmax refers to the top rate of the reaction or transport when substrate is in excess. The term kcat denotes the maximal rate divided by the concentration of active sites. Usually kcat/Km stands for the turnover number divided by the Michaelis constant.

B1: ABCG5/G8 (Homo sapiens) (protein)
chain 1: MGDLSSLTPGGSMGLQVNRGSQSSLEGAPATAPEPHSLGILHASYSVSHRVRPWWDITSCRQQWTRQILKDVSLYVESGQIMCILGSSGSGKTTLLDAMSGRLGRAGTFLGEVYVNGRALRREQFQDCFSYVLQSDTLLSSLTVRETLHYTALLAIRRGNPGSFQKKVEAVMAELSLSHVADRLIGNYSLGGISTGERRRVSIAAQLLQDPKVMLFDEPTTGLDCMTANQIVVLLVELARRNRIVVLTIHQPRSELFQLFDKIAILSFGELIFCGTPAEMLDFFNDCGYPCPEHSNPFDFYMDLTSVDTQSKEREIETSKRVQMIESAYKKSAICHKTLKNIERMKHLKTLPMVPFKTKDSPGVFSKLGVLLRRVTRNLVRNKLAVITRLLQNLIMGLFLLFFVLRVRSNVLKGAIQDRVGLLYQFVGATPYTGMLNAVNLFPVLRAVSDQESQDGLYQKWQMMLAYALHVLPFSVVATMIFSSVCYWTLGLHPEVARFGYFSAALLAPHLIGEFLTLVLLGIVQNPNIVNSVVALLSIAGVLVGSGFLRNIQEMPIPFKIISYFTFQKYCSEILVVNEFYGLNFTCGSSNVSVTTNPMCAFTQGIQFIEKTCPGATSRFTMNFLILYSFIPALVILGIVVFKIRDHLISR
chain 2: MAGKAAEERGLPKGATPQDTSGLQDRLFSSESDNSLYFTYSGQPNTLEVRDLNYQVDLASQVPWFEQLAQFKMPWTSPSCQNSCELGIQNLSFKVRSGQMLAIIGSSGCGRASLLDVITGRGHGGKIKSGQIWINGQPSSPQLVRKCVAHVRQHNQLLPNLTVRETLAFIAQMRLPRTFSQAQRDKRVEDVIAELRLRQCADTRVGNMYVRGLSGGERRRVSIGVQLLWNPGILILDEPTSGLDSFTAHNLVKTLSRLAKGNRLVLISLHQPRSDIFRLFDLVLLMTSGTPIYLGAAQHMVQYFTAIGYPCPRYSNPADFYVDLTSIDRRSREQELATREKAQSLAALFLEKVRDLDDFLWKAETKDLDEDTCVESSVTPLDTNCLPSPTKMPGAVQQFTTLIRRQISNDFRDLPTLLIHGAEACLMSMTIGFLYFGHGSIQLSFMDTAALLFMIGALIPFNVILDVISKCYSERAMLYYELEDGLYTTGPYFFAKILGELPEHCAYIIIYGMPTYWLANLRPGLQPFLLHFLLVWLVVFCCRIMALAAAALLPTFHMASFFSNALYNSFYLAGGFMINLSSLWTVPAWISKVSFLRWCFEGLMKIQFSRRTYKMPLGNLTIAVSGDKILSVMELDSYPLYAIYLIVIGLSGGFMVLYYVSLRFIKQKPSQDW
notes: full-length heterodimer; ABCG5 C-terminal His6GlyHis6, ABCG8 C-terminal 3C site and CBP (CBP tag and N-glycans kept); Pichia pastoris KM71H; DDM-purified
Take B1: the Km worked out at 600 ± 70 µM, the Vmax is 0.677 µmol/min/mg, the catalytic constant (kcat) is 1.69 ± 0.06 s⁻¹ and the specificity constant (kcat/Km) stood at 2800 M⁻¹ s⁻¹.

B2: ABCG5/G8 (Homo sapiens; Q9H221:R543S) (protein)
chain 1: B1 chain 1
chain 2: B1 chain 2 with R543S
notes: as for B1
As for B2, the Km came out at 420 ± 40 µM, the Vmax came to 0.151 µmol/min/mg, the kcat was 0.38 ± 0.01 s⁻¹ and the kcat/Km was determined as 900 M⁻¹ s⁻¹.

B3: ABCG5/G8 (Homo sapiens; Q9H222:A540F) (protein)
chain 1: B1 chain 1 with A540F
chain 2: B1 chain 2
notes: as for B1
Consider B3, for which the Michaelis-Menten constant (Km) is 580 ± 80 µM, the Vmax came to 0.101 µmol/min/mg, the catalytic constant (kcat) came to 0.25 ± 0.01 s⁻¹ and the kcat/Km was 430 M⁻¹ s⁻¹.

B4: ABCG5/G8 (Homo sapiens; Q9H222:E146Q) (protein)
chain 1: B1 chain 1 with E146Q
chain 2: B1 chain 2
notes: as for B1
As to B4, the Michaelis constant (Km) is 510 ± 50 µM, the maximal velocity (Vmax) came out at 0.167 µmol/min/mg, the kcat came out at 0.41 s⁻¹ and the catalytic efficiency (kcat/Km) was 820 M⁻¹ s⁻¹.
